In this data set the test system is LexA (Escherichia coli). As to the kind of experiment: EMSA. The following applies: 0.5 nM DNA or nucleosome, 10 mM Tris-HCl pH 8.0, 130 mM NaCl, 10% glycerol, 0.0075% Tween-20, room temperature, 20 min; 5% native acrylamide gel in 0.3x TBE. A general note: A gel shift assay detects complexes by their altered migration in electrophoresis.

The term pKd denotes the Kd on a negative log10 scale, so that one unit is a factor of ten. Read a low pKd as a large Kd.

pKd: −log10 of the molar value.

In turn, YNN1-LexO naked DNA gave a negative logarithm of the Kd (pKd) of more than 8.30.

The values above are taken from article doi:10.64898/2025.12.08.693039.
